According to paper PMC10897393, “Cellular reprogramming in vivo initiated by SOX4 pioneer factor activity”:

Assays:
[1] = target: T1, MYC-FLAG-HNF4A (Mus musculus, UniProt P49698 1-474); test: EMSA; EMSA: 10 mM Tris-HCl pH 7.5, 1 mM MgCl2, 1 mM DTT, 50 mM KCl, 0.3 mg/ml BSA, 5% glycerol, RT 30 min; 5% native PAGE in 0.5x TBE; settings: protein: commercial; tags: MYC-FLAG; chain copies: 2; label: Cy5 5'-end; blunt
T1 sequence: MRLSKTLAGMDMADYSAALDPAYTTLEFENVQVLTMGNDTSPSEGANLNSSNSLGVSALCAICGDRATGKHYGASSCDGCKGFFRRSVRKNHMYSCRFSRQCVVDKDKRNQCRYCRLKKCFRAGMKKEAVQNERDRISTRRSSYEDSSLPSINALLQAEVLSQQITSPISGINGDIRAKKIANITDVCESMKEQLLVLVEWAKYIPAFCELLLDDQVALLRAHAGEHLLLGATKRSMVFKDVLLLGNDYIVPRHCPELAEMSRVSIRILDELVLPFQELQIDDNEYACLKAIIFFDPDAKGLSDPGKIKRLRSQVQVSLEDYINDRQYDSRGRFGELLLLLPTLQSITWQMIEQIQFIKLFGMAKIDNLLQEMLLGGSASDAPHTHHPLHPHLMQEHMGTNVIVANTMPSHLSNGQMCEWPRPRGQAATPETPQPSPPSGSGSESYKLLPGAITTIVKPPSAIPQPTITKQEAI

[2] = target: T2, FLAG-SOX4 (Mus musculus, UniProt Q06831 1-440); test: EMSA; more robust binding than HNF4A; EMSA: 10 mM Tris-HCl pH 7.5, 1 mM MgCl2, 1 mM DTT, 50 mM KCl, 0.3 mg/ml BSA, 5% glycerol, RT 30 min; 5% native PAGE in 0.5x TBE; settings: protein: recombinant; label: Cy5 5'-end; blunt
T2 sequence (Q06831 whole entry): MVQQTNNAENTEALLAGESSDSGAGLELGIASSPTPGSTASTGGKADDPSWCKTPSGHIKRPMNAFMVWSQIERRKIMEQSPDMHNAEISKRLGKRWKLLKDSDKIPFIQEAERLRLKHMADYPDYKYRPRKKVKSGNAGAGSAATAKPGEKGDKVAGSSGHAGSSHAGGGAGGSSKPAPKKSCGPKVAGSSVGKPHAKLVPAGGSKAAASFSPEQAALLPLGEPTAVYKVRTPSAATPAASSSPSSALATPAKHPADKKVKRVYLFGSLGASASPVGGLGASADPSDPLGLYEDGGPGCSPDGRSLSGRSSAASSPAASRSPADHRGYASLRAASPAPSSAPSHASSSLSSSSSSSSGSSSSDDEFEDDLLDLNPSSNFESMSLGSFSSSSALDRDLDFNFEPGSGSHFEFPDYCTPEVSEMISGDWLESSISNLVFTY

[3] = target: T2, FLAG-SOX4; test: competition; SOX4 displaces pre-bound HNF4A (30 nM); value is the effective SOX4 concentration; EMSA: 10 mM Tris-HCl pH 7.5, 1 mM MgCl2, 1 mM DTT, 50 mM KCl, 0.3 mg/ml BSA, 5% glycerol, RT 30 min; 5% native PAGE in 0.5x TBE; settings: protein: recombinant; label: Cy5 5'-end; blunt

Measured: binding result

B1: Cyp2e1 distal enhancer WT (HNF4A motif) (dsDNA)
DNA 1: ATCTCTGGGACAAAGTATAGAGAAG
DNA 2: CTTCTCTATACTTTGTCCCAGAGAT
binds: all assays above
